T1: human TIGIT over-expressed on cells (human, UniProt Q495A1 22-244)
T1 construct: also called CHO-K1/human TIGIT cells; CHO cells expressing human TIGIT
T1 sequence: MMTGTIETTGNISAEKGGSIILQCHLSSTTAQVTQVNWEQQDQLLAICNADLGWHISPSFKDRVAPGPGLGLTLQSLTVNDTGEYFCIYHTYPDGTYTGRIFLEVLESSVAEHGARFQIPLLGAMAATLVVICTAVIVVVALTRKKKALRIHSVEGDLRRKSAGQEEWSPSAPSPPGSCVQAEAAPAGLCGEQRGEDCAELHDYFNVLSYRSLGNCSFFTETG

T2: Human TIGIT protein with HIS tag (human, UniProt Q495A1 22-141)
T2 construct: A soluble analyte is probably only the extracellular part; also called human TIGIT recombinant protein; not shown: HIS tag
T2 sequence: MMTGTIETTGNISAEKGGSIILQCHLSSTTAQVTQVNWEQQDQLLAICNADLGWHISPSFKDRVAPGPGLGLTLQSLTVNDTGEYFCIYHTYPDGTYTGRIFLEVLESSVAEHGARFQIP


Tests used:
[1] = molecular target: T1, human TIGIT over-expressed on cells; experiment: FACS, CHO-K1 cells over-expressing human TIGIT
Description: (§1) The mixture was equilibrated for 30 minutes at room temperature and washed three times with FACS buffer (PBS containing 1% BSA). iFluor labeled goat anti-mouse IgG as the secondary antibody was added and incubated at room temperature for 45 min. Finally, the cells were washed 3 time with PBS, and the signal was read by FACS BD Calibur. Data was analyzed with PRISM™ (GraphPad Software, San Diego, Calif.) using non-linear regression and EC₅₀ values were calculated.

[2] = molecular target: T1, human TIGIT over-expressed on cells; experiment: cell-based or functional assay
[3] = molecular target: T1, human TIGIT over-expressed on cells; experiment: cell-based or functional assay; remark: listed apart in the source
[4] = molecular target: T3, cynomolgus TIGIT over-expressed on CHO-K1 cells (cynomolgus, UniProt A0A7N9I9V4 89-312); experiment: FACS, CHO-K1 cells over-expressing cynomolgus TIGIT
T3 construct: whole, on cells; also called CHO-K1/cynomolgus TIGIT cells
T3 sequence (A0A7N9I9V4 entry or part of it): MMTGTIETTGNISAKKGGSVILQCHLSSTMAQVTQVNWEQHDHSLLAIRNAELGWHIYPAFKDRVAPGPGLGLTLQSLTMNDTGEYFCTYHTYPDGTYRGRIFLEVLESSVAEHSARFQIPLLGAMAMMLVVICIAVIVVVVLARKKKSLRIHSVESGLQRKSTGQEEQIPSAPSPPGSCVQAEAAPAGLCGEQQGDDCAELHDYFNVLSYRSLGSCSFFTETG
Description: as §1

[5] = molecular target: T1, human TIGIT over-expressed on cells; experiment: competition FACS, CHO cells expressing human TIGIT; competitor PVR recombinant protein
Description: The mixture was equilibrated for 30 minutes at room temperature, and washed three times with FACS buffer (PBS containing 1% BSA). PE/Cy5 Streptavidin secondary antibody was then added to the mixtures and incubated for 15 minutes at room temperature. Subsequently, the cells were washed with FACS buffer and analyzed by flow cytometry. Data was analyzed with PRISM™ (GraphPad Software, San Diego, Calif.) using non-linear regression, and IC₅₀ values were calculated (FIGS. 4A-4B and Table 6).

[6] = molecular target: T2, Human TIGIT protein with HIS tag; experiment: SPR Biacore T200; antibody Fc-captured, TIGIT-His analyte
Description: Binding kinetics of mouse anti-human TIGIT monoclonal antibodies to human TIGIT were determined using a Surface Plasmon Resonance (SPR) biosensor, BIACORE® T200 (GE Healthcare; Little Chalfont, United Kingdom). […] Each mouse anti-human TIGIT monoclonal antibody was immobilized on the sensor chip through the Fc capture method. Human TIGIT protein with HIS tag was used as the analyte. The dissociation (kd) and association (kₐ) rate constants were obtained using the BIACORE® T200 evaluation software. The apparent equilibrium dissociation constants (KD) were calculated from the ratio of kd over kₐ.

| Binder | Bottom (best-fit) [1] | EC50 [1] [nM] | Top (best-fit) [1] | luciferase signal in T cell activation, Bottom (best-fit) [2] | luciferase signal in T cell activation, EC50 [2] [nM] | luciferase signal in T cell activation, Top (best-fit) [2] | IL-2 secretion in T cell activation, Bottom (best-fit) [3] | IL-2 secretion in T cell activation, EC50 [3] [nM] | IL-2 secretion in T cell activation, Top (best-fit) [3] | Bottom (best-fit) [4] | EC50 [4] [nM] | Top (best-fit) [4] | Bottom (best-fit) [5] | IC50 [5] [nM] | Top (best-fit) [5] | Kd [6] [nM] | koff [6] [s⁻¹] | kon [6] [M⁻¹ s⁻¹] |
| --- | --- | --- | --- | --- | --- | --- | --- | --- | --- | --- | --- | --- | --- | --- | --- | --- | --- | --- |
| 64G1E9B4 (antibody, V domains shown, Mouse monoclonal antibody; also called mouse anti-human TIGIT monoclonal antibody 64G1E9B4) VH: EVQLQQSGPELVKPGASVKISCKTSGYTFTEHVIHWVKQSHGKSLEWIGGFNPNHDGTIYNQIFRGKATLTVDKSSSTAYMELRSLTSEDSAVYFCTRAAKLLFAMDYWGQGTSVTVSS VL: DIVMTQSHKFMSTSIGDRVSITCKASQHVSNAVVWYQQKPGQSPKLLIYSPSYRFTGVPDRFTGSGSGTDFTFTISSVQAEDLAVYYCQQHYSTPWTFGGGTKLEIK | 15.3 | 0.61 | 113 | 5.7 | 1.64 | 124 | 111 | 0.82 | 283 | 15.3 | 1.58 | 455 | 9.5 | 1 | 67.1 | 0.23 | 0.00015 | 650000 |
| 104G12E12G2 (antibody, V domains shown, Mouse monoclonal antibody; also called mouse anti-human TIGIT monoclonal antibody 104G12E12G2) VH: EVQLQQSGPELVKPGASVKISCKASGYSFTGSYIHWVKQNHVKTLEWIGRINPHNGPTSYNQNFKGKASLTVDLSSSTAYMEVHSLTSEDSAVYYCVRYDGYYGGALDYWGQGTSVTVSS VL: DIQMTQSPSSLSASLGERVSLTCRASQEISGYLSWLQQKPDGTIKRLIYAASTLDSGVPKRFSGSRSGSDYSLTISSLESEDFADYYCLQYASYPYTFGGGTKLEIK | 15.5 | 0.73 | 96.9 | 6 | 6.42 | 147 | 108 | 3.31 | 189 | 7 | 11.1 | 80.6 | 8.9 | 2.4 | 56.9 | 2.3 | 0.00083 | 370000 |
| 121C2F10B5 (antibody, V domains shown, Mouse monoclonal antibody; also called mouse anti-human TIGIT monoclonal antibody 121C2F10B5) VH: EVQLVESGGDLVKPGGSLKLSCAASGFTFSTYGMSWVRQTPDKRLEWVATISSGGSYTYYPDSVKGRFTISRDNAKNTLYLQMSSLKSEDTAMYYCARQVHYFYAMDYWGQGTSVTVSS VL: DIQMTQSPASLSVSVGETVTITCRASENIYSNLAWYQQKQGKSPQVLVYAATNLADGVPSRFSGSRSGTQYSLKINSLQSEDFGSYYCQHFWDNAYTFGGGTKLEIK | 14.2 | 0.36 | 92.7 | 5.4 | 4.38 | 153 | 96.2 | 1.02 | 197 | 7.6 | 10.2 | 120 | 11.8 | 0.6 | 68.8 | 0.72 | 0.00093 | 1.3e+06 |

Source: patent US20210095028A1 (NANJING LEGEND BIOTECH, published 2021)
